{
  "source": "patent US20230399641A1",
  "about": "(SHANGHAITECH UNIVERSITY, published 2023)",
  "binders": {"B1": {"name": "receptor binding domain (RBD) of HCoV-NL63 spike (residues 481-616) (ligand)", "chain": "QHTDINFTATASFGGSCYVCKPHQVNISLNGNTSVCVRTSHFSIRYIYNRVKSGSPGDSSWHIYLKSGTCPFSFSKLNNFQKFKTICFSTVEVPGSCNFPLEATWHYTSYTIVGALYVTWSEGNSITGVPYPVSGI"}},
  "biological_target": "extracellular protease domain of wildtype human ACE2 (residues 19-615) (human, UniProt Q9BYF1 19-615)",
  "sequence (Q9BYF1 19-615)": "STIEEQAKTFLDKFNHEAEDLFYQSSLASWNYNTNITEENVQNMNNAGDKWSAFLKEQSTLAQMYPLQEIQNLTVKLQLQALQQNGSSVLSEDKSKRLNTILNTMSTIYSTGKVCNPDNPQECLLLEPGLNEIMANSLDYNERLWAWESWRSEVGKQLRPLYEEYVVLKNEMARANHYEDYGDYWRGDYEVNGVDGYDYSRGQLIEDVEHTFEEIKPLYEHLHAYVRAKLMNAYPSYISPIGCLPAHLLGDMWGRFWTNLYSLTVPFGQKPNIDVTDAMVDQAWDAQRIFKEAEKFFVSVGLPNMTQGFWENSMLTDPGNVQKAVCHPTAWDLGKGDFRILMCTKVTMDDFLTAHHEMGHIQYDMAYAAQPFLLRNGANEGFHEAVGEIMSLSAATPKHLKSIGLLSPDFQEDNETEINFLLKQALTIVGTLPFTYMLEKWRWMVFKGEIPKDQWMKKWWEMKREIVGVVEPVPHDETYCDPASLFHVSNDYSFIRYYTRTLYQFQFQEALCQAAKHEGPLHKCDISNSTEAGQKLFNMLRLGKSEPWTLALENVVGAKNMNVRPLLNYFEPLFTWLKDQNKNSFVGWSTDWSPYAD",
  "data": [
    {"binder": "B1", "values": [
      {"measurement": "Kd", "value": 430, "unit": "nM"}
    ]}
  ]
}
